{
  "source": "patent US20210253725A1",
  "about": "(BIONTECH, published 2021)",
  "binders": {"B1": {"name": "P018.S.06.A.F03 (antibody, V domains shown)", "VH": "QSLEESGGDLVRPGASLTLTCTASGLSFSDRYWISWVRQAPGKGLEWIASIYTGSDGVADYATWAKGRVTISKTSSTTVTLQMTSLTAADTATYFCARDREYGSNTGVYSLWGPGTLVTVSS", "VL": "DVLMTQTPSSVSPAVGGTVTIKCQASQNIYSNLAWYQQKPGQRPKLLVYDASNLEYGVPSRFKGSGSGTEYTLTISDLESADAANYYCQCTYYGNNYITFGGGTEVVVR", "notes": "V regions on human Ig constant parts; also called AB27_108"}, "B2": {"name": "P018.S.03.A.H03 (antibody, V domains shown)", "VH": "QSLEESGGDLVKPEGSLTLTCTASGLDFSSSYWICWVRQAPGKGLEWIACIHAGSSGTTHYATWAKGRFTISKTSSTTVTLQMTSLTAADTATYFCARGAVYGGGSYDNFNLWGPGTLVTVSS", "VL": "AYDMTQTPASVEVAVGGTVTIKCQASQSIGTYLSWYQQKPGQPPKLLIYAASTLASGVQPRFKGSGSGTQFTLTISGVQSDDAATYYCQQGYSADNVANSFGGGTEVVVK", "notes": "V regions on human Ig constant parts; also called AB27_61"}, "B3": {"name": "P018.S.10.A.E04 (antibody, V domains shown)", "VH": "QSLEESGGDLVKPGASLTLTCTASGFSFSSSYWICWVRQAPGKGLEWVACISAPGSGSTFDASWAKGRFTISKTSSTTVTLQMTSLTAADTATYFCARFYAGGSGDYFDLWGPGTLVTVSS", "VL": "QIVMTQTPSSTSEPVGGTVSIKCQASQNIGSYLAWYQQKPGQPPKVLIYTTSDLASGVPSRFKGSGSGTQFTLTISDLESDDAATYYCLGVYGYSSDDVAFGGGTEVVVK", "notes": "V regions on human Ig constant parts; also called AB27_177"}, "B4": {"name": "P018.S.04.A.E02 (antibody, V domains shown)", "VH": "QSVEESGGRLVTPGTPLTLTCTVSGFSLNNYDMNWVRQAPGKGLEWVGYIDTGGSAYYASWVNGRFTISKTSTTVELKMTSLTASDTATYFCARGYTHGYLWGQGTLVTVSS", "VL": "ALVMTQTPSSVSAAVGGTVTINCQASQNVYNNLAWYQQKPGQPPKLLIDSASTLASGVSSRFKGSGSGTEFTLTISDLESADAATYYCQSADWESSNFFWAFGGGTEVVVK", "notes": "V regions on human Ig constant parts; also called AB27_74"}, "B5": {"name": "P018.S.08.A.A01 (antibody, V domains shown)", "VH": "B4 VH with S60N, T97I", "VL": "B4 VL with K39R, K45E", "notes": "V regions on human Ig constant parts; also called AB27_135"}, "B6": {"name": "P018.S.03.A.H02 (antibody, V domains shown)", "VH": "QSLEESGGRLMTPGGSLTLTCTVSGFSLSDYNMQWVRQAPGEGLEWIGIISLGGTTDYANWVKGRFTISKTSTTVDLKMTSLTASDTATYFCARDPAGGNWAELDLWGQGTLVTVSS", "VL": "DIVMTQTPASVSEPVGGTVTIKCQASQSISSWLSWFQQKPGQPPKLLIYDASTLASGVPSRFKGSGSGTEFTLTISDLESADAATYYCQQGSTISNVDNAFGGGTEVVVK", "notes": "V regions on human Ig constant parts; also called AB27_60"}},
  "note": "Positions count from the first letter of the chain named. Names may count otherwise. Also: test concentration or dose not given here.",
  "data": [
    {"molecular_target": "T1, CD27 expressed on the cell surface (HT1080_CD27 cells) (human, UniProt P26842 20-260)", "T1 sequence (looked up)": "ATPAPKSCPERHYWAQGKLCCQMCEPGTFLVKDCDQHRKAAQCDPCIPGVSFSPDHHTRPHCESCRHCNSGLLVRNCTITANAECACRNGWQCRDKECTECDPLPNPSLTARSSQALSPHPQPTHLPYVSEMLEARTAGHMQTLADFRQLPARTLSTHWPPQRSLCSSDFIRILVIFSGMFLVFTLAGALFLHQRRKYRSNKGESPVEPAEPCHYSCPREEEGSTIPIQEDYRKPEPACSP", "assay": "cell-based or functional assay", "units": {"IL-8, cross-linked by F(ab')2 fragment [abs. corr.]": "abs. corr.", "IL-8 [abs. corr.]": "abs. corr."}, "values": [
      {"binder": "B1", "IL-8, cross-linked by F(ab')2 fragment [abs. corr.]": 1.08, "IL-8 [abs. corr.]": 0.063},
      {"binder": "B2", "IL-8, cross-linked by F(ab')2 fragment [abs. corr.]": 1.09, "IL-8 [abs. corr.]": 0.588},
      {"binder": "B3", "IL-8, cross-linked by F(ab')2 fragment [abs. corr.]": 2.29, "IL-8 [abs. corr.]": 0.339},
      {"binder": "B4", "IL-8, cross-linked by F(ab')2 fragment [abs. corr.]": 1.91, "IL-8 [abs. corr.]": 0.676},
      {"binder": "B5", "IL-8, cross-linked by F(ab')2 fragment [abs. corr.]": 1.57, "IL-8 [abs. corr.]": 0.876},
      {"binder": "B6", "IL-8, cross-linked by F(ab')2 fragment [abs. corr.]": 1.07, "IL-8 [abs. corr.]": 0.13}
    ]},
    {"molecular_target": "T2, CD27 protein (His-tagged, Sino Biological Inc. 10039-H08B1) (human, UniProt P26842 20-192)", "T2 construct": "bought; coated onto ELISA plates; also called human CD27; recombinant protein; not shown: His tag", "T2 sequence (looked up)": "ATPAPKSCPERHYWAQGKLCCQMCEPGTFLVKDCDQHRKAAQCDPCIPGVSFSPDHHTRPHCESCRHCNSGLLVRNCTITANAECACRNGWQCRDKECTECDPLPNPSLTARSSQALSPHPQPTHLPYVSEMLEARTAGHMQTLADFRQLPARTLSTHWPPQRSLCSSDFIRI", "assay": "ELISA on coated His-tagged CD27", "units": {"ELISA [abs. corr.]": "abs. corr."}, "values": [
      {"binder": "B1", "ELISA [abs. corr.]": 3.16},
      {"binder": "B2", "ELISA [abs. corr.]": 3.15},
      {"binder": "B3", "ELISA [abs. corr.]": 3.15},
      {"binder": "B4", "ELISA [abs. corr.]": 3.52},
      {"binder": "B5", "ELISA [abs. corr.]": 3.42},
      {"binder": "B6", "ELISA [abs. corr.]": 3.15}
    ]},
    {"molecular_target": "T1, CD27 expressed on the cell surface …", "assay": "cellular binding assay, HT1080_CD27 cells", "units": {"Cellular binding assay [RFU]": "RFU"}, "values": [
      {"binder": "B1", "Cellular binding assay [RFU]": 304},
      {"binder": "B2", "Cellular binding assay [RFU]": 289},
      {"binder": "B3", "Cellular binding assay [RFU]": 280},
      {"binder": "B4", "Cellular binding assay [RFU]": 463},
      {"binder": "B5", "Cellular binding assay [RFU]": 448},
      {"binder": "B6", "Cellular binding assay [RFU]": 395}
    ]}
  ]
}
